Data as given in paper PMC6704068.

Molecular target: Saccharomyces cerevisiae alcohol dehydrogenase (Saccharomyces cerevisiae) (UniProt P00330)
Assay: SEC + native MS

Work on “Saccharomyces cerevisiae alcohol dehydrogenase (from UniProt P00330 1-348) (enzyme)” yielded a stoichiometry N of 4.
